Measured values reported in patent US20230192834A1.
Where a chain is given by its changes, count along the chain named. Each block holds one binder with its values, some of them ahead of it.

What was measured:
TGFβ3 (R&D Systems) [1] = molecular target: T1, TGFβ3 (R&D Systems); test: cell-based or functional assay
T1 sequence (P10600 301-412, species assumed, looked up): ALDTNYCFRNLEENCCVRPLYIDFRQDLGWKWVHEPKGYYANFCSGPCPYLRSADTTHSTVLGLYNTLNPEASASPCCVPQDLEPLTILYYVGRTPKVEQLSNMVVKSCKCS

TGFβ2 (R&D Systems) [2] = molecular target: T2, TGFβ2 (R&D Systems); test: cell-based or functional assay
T2 sequence (P61812 303-414, species assumed, looked up): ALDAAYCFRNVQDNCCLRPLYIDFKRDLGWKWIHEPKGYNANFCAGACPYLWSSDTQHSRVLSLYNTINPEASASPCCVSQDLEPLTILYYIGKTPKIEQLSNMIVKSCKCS

TGFβ1 (R&D Systems) [3] = test: cell-based or functional assay
TGFβ3 (R&D Systems) [4] = molecular target: T1, TGFβ3 (R&D Systems); test: SPR (Biacore T200), TGFβ amine-coupled to chip, 1:1 fit
TGFβ2 (R&D Systems) [5] = molecular target: T2, TGFβ2 (R&D Systems); test: as above
TGFβ1 (R&D Systems) [6] = test: as above

Chain of TGFβ1 (R&D Systems) (P01137 279-390): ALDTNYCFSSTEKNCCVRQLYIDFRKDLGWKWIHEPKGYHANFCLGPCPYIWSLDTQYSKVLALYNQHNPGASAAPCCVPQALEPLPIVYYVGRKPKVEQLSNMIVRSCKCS

B1: Caninized anti-TGFβ1,2,3 antibody VH3.6 - VL2 (antibody, V domains shown)
VH: EVQLVQSAAEVKKPGASVKVSCKTSGYIFISNVISWVRQAPGQGLEWMGGVIPIVDIANYAQRFKGRVTITADESTSTTYMELSSLRSEDTAVYYCASTLGLVLDAMDYWGQGTLVTVSS
VL: ETVLTQSPGTLSLSPGERATLSCRASQSLGSSYLAWYQQKPGQAPRLLIYGASSRAPGVPARFSGSGSGTDFTLTISSLEPEDFAVYYCQQYADSPITFGQGTKLEIKR
TGFb3 IC50 (SMAD3 phosphorylation in CMVICs, AlphaLISA) (TGFβ3 (R&D Systems) [1]): 0.203 µg/mL | TGFb2 IC50 (SMAD3 phosphorylation in CMVICs, AlphaLISA) (TGFβ2 (R&D Systems) [2]): 0.459 µg/mL | TGFb1 IC50 (SMAD3 phosphorylation in CMVICs, AlphaLISA) (TGFβ1 (R&D Systems) [3]): 0.057 µg/mL | Kd (TGFβ3 (R&D Systems) [4]): 1.49 nM | Kd (TGFβ2 (R&D Systems) [5]): 3.42 nM | Kd (TGFβ1 (R&D Systems) [6]): 4.39 nM

B3: human: feline GC1008 chimera felchimGC1008 (antibody, V domains shown)
VH: QVQLVQSGAEVKKPGSSVKVSCTASGYTPSSNVISNVRQAPGQGLENNGGVIPIVDIANYAQRPKGRVTITADESTSTTYHELSSLRSEDTAVYYCASTLGLVLDAMDYHGQGTLVTVSS
VL: B1 VL with V59I, A61D, S78R, K104R
TGFb3 IC50 (SMAD3 phosphorylation in CMVICs, AlphaLISA) (TGFβ3 (R&D Systems) [1]): 0.053 µg/mL | TGFb2 IC50 (SMAD3 phosphorylation in CMVICs, AlphaLISA) (TGFβ2 (R&D Systems) [2]): 0.167 µg/mL | TGFb1 IC50 (SMAD3 phosphorylation in CMVICs, AlphaLISA) (TGFβ1 (R&D Systems) [3]): 0.176 µg/mL | Kd (TGFβ3 (R&D Systems) [4]): 2.35 nM | Kd (TGFβ2 (R&D Systems) [5]): 1.88 nM | Kd (TGFβ1 (R&D Systems) [6]): 2.58 nM

B4: Caninized anti-TGFβ1,2,3 antibody VH4.11 - VL3 (antibody, V domains shown)
VH: QVQLVQSGAEVKKPGSSVKVSCKASGYTFSSNVISWVRQAPGKGLQWVGGVIPIVDIANYAQRFKGRVTLTADTSTNTVYMELSNLRTEDTAVYYCARTLGLVLDAMDYWGQGTLVTVSS
VL: EIVMTQSPASLSLSQEEKVTITCRASQSLGSSYLAWYQQKPGQAPKLLIYGASSRAPGVPSRFSGSGSGTDFSFTISSLEPEDVAVYYCQQYADSPITFGQGTKLEIKR
TGFb3 IC50 (SMAD3 phosphorylation in CMVICs, AlphaLISA) (TGFβ3 (R&D Systems) [1]): 0.575 µg/mL | TGFb2 IC50 (SMAD3 phosphorylation in CMVICs, AlphaLISA) (TGFβ2 (R&D Systems) [2]): 16.7 µg/mL | TGFb1 IC50 (SMAD3 phosphorylation in CMVICs, AlphaLISA) (TGFβ1 (R&D Systems) [3]): 1.01 µg/mL | Kd (TGFβ3 (R&D Systems) [4]): 2.5 nM | Kd (TGFβ2 (R&D Systems) [5]): 5.15 nM | Kd (TGFβ1 (R&D Systems) [6]): 7.14 nM

B6: Caninized anti-TGFβ1,2,3 antibody VH4.11 - VL2 (antibody, V domains shown)
VH: B4 VH
VL: B1 VL
TGFb3 IC50 (SMAD3 phosphorylation in CMVICs, AlphaLISA) (TGFβ3 (R&D Systems) [1]): 0.375 µg/mL | TGFb2 IC50 (SMAD3 phosphorylation in CMVICs, AlphaLISA) (TGFβ2 (R&D Systems) [2]): 8.48 µg/mL | TGFb1 IC50 (SMAD3 phosphorylation in CMVICs, AlphaLISA) (TGFβ1 (R&D Systems) [3]): 0.164 µg/mL | Kd (TGFβ3 (R&D Systems) [4]): 2.1 nM | Kd (TGFβ2 (R&D Systems) [5]): 3.77 nM | Kd (TGFβ1 (R&D Systems) [6]): 4.98 nM

B8: Caninized anti-TGFβ1,2,3 antibody VH5.10 - VL3 (antibody, V domains shown)
VH: EVQLVESGGDLVKPGGSLRLSCVASGFTFSSNVISWVRQAPGQGLEWMGGVIPIVDIANYAQRFKGRVTLTADTSTNTVYMELSNLRTEDTAVYYCARTLGLVLDAMDYWGQGTLVTVSS
VL: B4 VL
TGFb3 IC50 (SMAD3 phosphorylation in CMVICs, AlphaLISA) (TGFβ3 (R&D Systems) [1]): 0.113 µg/mL | TGFb2 IC50 (SMAD3 phosphorylation in CMVICs, AlphaLISA) (TGFβ2 (R&D Systems) [2]): 5.47 µg/mL | TGFb1 IC50 (SMAD3 phosphorylation in CMVICs, AlphaLISA) (TGFβ1 (R&D Systems) [3]): 0.232 µg/mL | Kd (TGFβ3 (R&D Systems) [4]): 1.5 nM | Kd (TGFβ2 (R&D Systems) [5]): 3.57 nM | Kd (TGFβ1 (R&D Systems) [6]): 5.23 nM

These reach a lower Kd (TGFβ3 (R&D Systems) [4]). Values come first.

TGFb2 IC50 (SMAD3 phosphorylation in CMVICs, AlphaLISA) (TGFβ2 (R&D Systems) [2]): 0.81 µg/mL | TGFb1 IC50 (SMAD3 phosphorylation in CMVICs, AlphaLISA) (TGFβ1 (R&D Systems) [3]): 0.071 µg/mL | Kd (TGFβ3 (R&D Systems) [4]): 1.2 nM | Kd (TGFβ2 (R&D Systems) [5]): 1.99 nM | Kd (TGFβ1 (R&D Systems) [6]): 2.61 nM
B7: Caninized anti-TGFβ1,2,3 antibody VH4.7 - VL2 (antibody, V domains shown)
VH: B4 VH with L70I, T74E, N77S, V79T, N85S, T88S, R98S
VL: B1 VL

TGFb3 IC50 (SMAD3 phosphorylation in CMVICs, AlphaLISA) (TGFβ3 (R&D Systems) [1]): 0.092 µg/mL | TGFb2 IC50 (SMAD3 phosphorylation in CMVICs, AlphaLISA) (TGFβ2 (R&D Systems) [2]): 0.508 µg/mL | TGFb1 IC50 (SMAD3 phosphorylation in CMVICs, AlphaLISA) (TGFβ1 (R&D Systems) [3]): 0.061 µg/mL | Kd (TGFβ3 (R&D Systems) [4]): 1.12 nM | Kd (TGFβ2 (R&D Systems) [5]): 3.37 nM | Kd (TGFβ1 (R&D Systems) [6]): 5.6 nM
B2: Caninized anti-TGFβ1,2,3 antibody VH3.1 - VL2 (ZTS-122) (antibody, V domains shown)
VH: DVQLVESGGDLVKPGGSLRLTCVASGYTFSSNVMHWVRQAPGKGLQWVAYVIPIVDIAYYADSVKGRFTISIDNSKNTLYLQMNSLKTEDTATYYCARTLGLVLDAMDYWGQGTLVTVSS
VL: B1 VL

TGFb3 IC50 (SMAD3 phosphorylation in CMVICs, AlphaLISA) (TGFβ3 (R&D Systems) [1]): 0.034 µg/mL | TGFb2 IC50 (SMAD3 phosphorylation in CMVICs, AlphaLISA) (TGFβ2 (R&D Systems) [2]): 0.954 µg/mL | TGFb1 IC50 (SMAD3 phosphorylation in CMVICs, AlphaLISA) (TGFβ1 (R&D Systems) [3]): 0.134 µg/mL | Kd (TGFβ3 (R&D Systems) [4]): 0.981 nM | Kd (TGFβ2 (R&D Systems) [5]): 3.91 nM | Kd (TGFβ1 (R&D Systems) [6]): 7.52 nM
B5: Caninized anti-TGFβ1,2,3 antibody VH3.1 - VL3 (antibody, V domains shown)
VH: B2 VH
VL: B4 VL
